Test results taken from patent publication US9744220B2, “Compositions and methods for treating inflammatory diseases” (priority 2013, dated 2017).

Tests used:
[1] = tested on: cardiac Sca-1+ cells; assay: Intravenous sPDNF into naïve mice, Sca-1 staining of heart sections; assay type: in vivo
[2] = tested on: cardiac fibroblasts; assay: sPDNF stimulation of primary cardiac fibroblasts, chemokine transcripts by qPCR; assay type: cell-based, mouse; conditions: 3 hr, dose-dependent
Experimental: FIG. 7A is a graph depicting MCP-1 and FKN expression in cardiomyocytes of mice infected with T cruzi. FIG. 7B is a graph depicting MCP-1 and FKN expression in cardiac fibroblasts of mice infected with T cruzi. T cruzi infection: Primary cultures of mouse cardiomyocytes (FIG. 7A) and cardiac fibroblasts (FIG. 7B) were plated in 6-well plates, infected with T cruzi Tulahuen strain (MOI=10) for 3, 24, and 72 hr, and MCP-1 and FKN transcripts were quantified by qPCR. Chemokine gene expression was normalized to HPRT and fold change calculated relative to uninfected cells. Points represent mean±SD fold change expression of triplicate samples. The experiment was repeated, and similar results were obtained. FIG. 7C is a graph depicting MCP-1 and FKN expression in cardiomyocytes of mice injected with sPDNF. FIG. 7D is a graph depicting MCP-1 and FKN expression in cardiac fibroblasts of mice injected with sPDNF. sPDNF stimulation: Primary cardiomyocytes (FIG. 7C) and cardiac fibroblasts (FIG. 7D) were plated in 6-well plates, serum starved overnight, then stimulated with the indicated concentration of sPDNF (3 hr), and MCP-1 and FKN transcripts were quantified by qPCR. Chemokine gene expression was normalized to HPRT and fold change calculated relative to vehicle-treated cells; *P<0.05, **P<0.01, and ***P<0.005. […]

[3] = tested on: H9c2 cardiomyocytes; assay: sPDNF stimulation of H9c2 cardiomyocytes, secretion by ELISA; assay type: cell-based, rat; conditions: H9c2, 3 hr
Experimental: FIG. 8A is a graph showing dose-response of MCP-1 secretion to sPDNF stimulation. H9c2 cardiomyocytes were plated in 6-well plates, grown in low serum (0.1% FCS) overnight, and stimulated with the indicated doses of sPDNF for 3 hr. Secretion of MCP-1, MIP-2α and IL-6 was determined by ELISA. FIG. 8B is a graph showing dose-response of MCP-transcript expression. H9c2 cardiomyocytes were plated in 6-well plates, grown in low serum (0.1%) overnight, and stimulated with the indicated doses of sPDNF for 3 hr, and MCP-transcript quantified by qPCR. Chemokine gene expression was normalized to HPRT and fold change calculated relative to vehicle-treated cells. Points represent mean±SD fold change expression of triplicate samples; *P<0.05, **P<0.01, and ***P<0.005. FIG. 8C is a graph showing time course of MCP-1 and FKN transcripts expression. H9c2 cardiomyocytes were plated in 6-well plates (triplicate), grown in low serum (0.1%) overnight, stimulated with sPDNF (1 μg/ml) for the indicated times, and MCP-1 and FKN (data not shown) transcripts quantified by qPCR. Three experiments gave similar results.
Primary cardiomyocytes and cardiac fibroblasts, and H9c2 cardiomyocytes were seeded at 6-8×10^4 cells per well in DMEM/10% FCS and allowed to adhere overnight, serum starved (DMEM/0.1% FCS overnight), and treated with sPDNF (0.5 ng/ml-8 μg/ml, 0-16 h). Cell supernatants were collected and stored at −80° C. and cell monolayers rinsed with PBS and collected in Trizol for qPCR analysis.
MCP-1: 96-well Maxisorp plates (Nunc) were coated overnight with relevant supernatants or MCP-1 standards (R&D Systems, 479-JE/CF) in coating buffer (50 mM NaHCO3/Na2CO3, pH 9.6, 0.02% NaN3), blocked in 5% BSA/PBST, reacted with a MCP-1 detection antibody (Santa Cruz, SC-28879; 1:200; 2 hr), and then alkaline-phosphatase (AP) conjugated secondary antibody (Sigma A3687; 1:1000; 1 hr). Between each step, plates were washed 2-4 times with PBST. […] MCP-1 concentrations were calculated relative to a 4-parametric standard curve using the SOFTmax Pro program. […]

B1: sPDNF: N-terminal short-form of T cruzi PDNF that contains Trk-binding sites, recombinant; amino acids 1-588 of SEQ ID NO: 2; JR-100 is the commercial name (protein, listed as Trypanosoma cruzi)
chain: MGKTVVVASRMFWLMFFVPLLLAICPSEPAYALAPGSSRVELFKRKNSTVPFEDKAGKVTERVVHSFRLPALVNVDGVMVAIADARYDTSNDNSLIDTVAKYSVDDGETWETQIAIKNSRVSSVSRVVDPTVIVKGNKLYVLVGSYYSSRSYWSSHGDARDWDILLAVGEVTKSTAGGKITASIKWGSPVSLKKFFPAEMEGMHTNQFLGGAGVAIVASNGNLVYPVQVTNKKKQVFSKIFYSEDDGKTWKFGKGRSDFGCSEPVALEWEGKLIINTRVDWKRRLVYESSDMEKPWVEAVGTVSRVWGPSPKSNQPGSQSSFTAVTIEGMRVMLFTHPLNFKGRWLRDRLNLWLTDNQRIYNVGQVSIGDENSAYSSVLYKDDKLYCLHEINTDEVYSLVFARLVGELRIIKSVLRSWKNWDSHLSSICTPADPAASSSESGCGPAVTTVGLVGFLSGNASQNVWEDAYRCVNASTANAERVRNGLKFAGVGGGALWPVSQQGQNQRYRFANHAFTLVASVTIHEAPRAASPLLGASLDSSGGKKLLGLSYDEKHQWQPIYGSTPVTPTGSWETGKRYHLVLTMANKI
In the case of B1, the “cardiac Sca-1+ cells” value [1] is reported as “expanded”, the FKN transcripts [2] is reported as “increase” and the MCP-1 transcripts [2] is reported as “increase”. For the same molecule, the “secretion of IL-6” value [3] was “did not alter”, the “secretion of macrophage inflammatory protein-2a/MIP-2a/CXCL2” value [3] was “did not alter” and the “secretion of MCP-1” value ([3]; dose-dependently) was “dramatically increased”.
